For series [1], the system named is biotinyl-Phe-oxazolone. Briefly: self-aminoacylation, catalytic enhancement (BFO) (fold over background); higher = more active; k-Seq, kA / k0A0; sequences stand for … in GGGAAUGGAUCCACAUCUACGAAUUC…UUCACUGCAGACUUGACGAAGCUG
An outline of the steps: (§1)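 Catalytic enhancement equals the median kA over the uncatalyzed rate, the latter read from the low-activity peak of a bimodal Gaussian fit. Values of kA came from fitting each sequence's fraction reacted to a pseudo-first-order model, with 1000 bootstraps. Reacted RNA was captured with streptavidin and quantified by triplicate qPCR and Illumina sequencing after 90 minutes at room temperature with 2–1250 μM biotinyl-aminoacyl-oxazolone and 0.43 μM mutagenized RNA pools bearing a 21-nt variable region.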

Series [2] concerns biotinyl-Ile-oxazolone. Briefly: self-aminoacylation, catalytic enhancement (BIO) (fold over background); higher = more active; k-Seq, kA / k0A0; sequences stand for … in GGGAAUGGAUCCACAUCUACGAAUUC…UUCACUGCAGACUUGACGAAGCUG
An outline of the steps:
as §1

Series [3] relates to biotinyl-Met-oxazolone. The series can be described thus: self-aminoacylation, catalytic enhancement (BMO) (fold over background); higher = more active; k-Seq, kA / k0A0; sequences stand for … in GGGAAUGGAUCCACAUCUACGAAUUC…UUCACUGCAGACUUGACGAAGCUG
An outline of the steps:
as §1

Series [4] has as its system biotinyl-Val-oxazolone. Briefly: self-aminoacylation, catalytic enhancement (BVO) (fold over background); higher = more active; k-Seq, kA / k0A0; sequences stand for … in GGGAAUGGAUCCACAUCUACGAAUUC…UUCACUGCAGACUUGACGAAGCUG
Summed up:
as §1

Series [5] relates to biotinyl-Leu-oxazolone. The series can be described thus: self-aminoacylation, catalytic enhancement (BLO) (fold over background); higher = more active; k-Seq, kA / k0A0; sequences stand for … in GGGAAUGGAUCCACAUCUACGAAUUC…UUCACUGCAGACUUGACGAAGCUG
An outline of the steps: as §1

In series [6] the test system is biotinyl-Trp-oxazolone. Briefly: self-aminoacylation, catalytic enhancement (BWO) (fold over background); higher = more active; k-Seq, kA / k0A0; sequences stand for … in GGGAAUGGAUCCACAUCUACGAAUUC…UUCACUGCAGACUUGACGAAGCUG
An outline of the steps:
as §1

Fewer inactive variants are shown than the library holds.

Turning to “AUUACCCUGUCCAUCGAGUGA [Fam2.1 aminoacylation ribozyme variant]”, the self-aminoacylation in series [1] came to 70.4; in series [2], 5.63; in series [3], 10.6; in series [4], 5.38; in series [5], 11.3; in series [6] it was 14.8.

Turning to “AUUCACCGAGGUCAUCGGGUA [Fam2.2 aminoacylation ribozyme variant]”, the self-aminoacylation was 25 in series [1]; 3.33 in series [2]; 2.93 in series [3]; 3.97 in series [4]; 3.22 in series [5]; 4 in series [6].

As for “CCAUACUUCAAGGAAUCGGUC [Fam1B.1 aminoacylation ribozyme variant]”, the self-aminoacylation in series [1] was 3.91; in series [2], 0.976; in series [3] it was 1.06; in series [4], 0.934; in series [5], 1.07; in series [6], 3.57.

With “AUUCACCUAGGUCAUAGUGUG [Fam2.2 aminoacylation ribozyme variant]”, the self-aminoacylation in series [1] was 0.512; in series [2] it was 0.658; in series [3], 0.625; in series [4], 0.727; in series [5] it was 0.67; in series [6], 0.453.

In the case of “AUUCUCCUAGGUCAUCAGGUG [Fam2.2 aminoacylation ribozyme variant]”, the self-aminoacylation in series [1] came to 6.58; in series [2] it was 2.12; in series [3] it was 2.62; in series [4], 2.3; in series [5] it was 2.71; in series [6], 2.38.

With “CUACUUCAAAUACUCGGUCUG [Fam1A.1 aminoacylation ribozyme variant]”, the self-aminoacylation in series [1] was found to be 0.622; in series [2] it was 0.832; in series [3], 0.972; in series [4], 0.84; in series [5], 0.807; in series [6], 0.71.

Turning to “AUUCAGUUAGGUCAUCGGGUG [Fam2.2 aminoacylation ribozyme variant]”, the self-aminoacylation in series [1] came to 25.6; in series [2], 3.04; in series [3], 3.8; in series [4] it was 3.12; in series [5], 4.86; in series [6], 4.04.

With “CUACUUCAAAAAAUCGAUCUG [Fam1A.1 aminoacylation ribozyme variant]”, the self-aminoacylation in series [1] is 1.46; in series [2] it was 0.663; in series [3] it was 0.601; in series [4], 0.585; in series [5], 0.6; in series [6], 0.604.

“AAGUUCGCUUAUAGUCGCAAG [Fam3.1 aminoacylation ribozyme variant]”: the self-aminoacylation in series [1] stood at 1.99; in series [2], 1.86; in series [3] it was 2.03; in series [4], 1.5; in series [5] it was 1.84; in series [6], 2.23.

As to “CCACACUCGAAGCAAUCGGUC [Fam1B.1 aminoacylation ribozyme variant]”, the self-aminoacylation worked out at 1.07 in series [1]; 1.2 in series [2]; 1.1 in series [3]; 1.11 in series [4]; 0.764 in series [5]; 0.864 in series [6].

Regarding “AUUGCCCUGGUCAUUGAGUGA [Fam2.1 aminoacylation ribozyme variant]”, the self-aminoacylation came to 64.3 in series [1]; 3.72 in series [2]; 8.44 in series [3]; 4.2 in series [4]; 7.3 in series [5]; 9.51 in series [6].

In the case of “AUUACCCGGGUCAUCGAGUGA [Fam2.1 aminoacylation ribozyme variant]”, the self-aminoacylation in series [1] was 44.9; in series [2], 3.57; in series [3] it was 6.91; in series [4], 3.85; in series [5], 7.1; in series [6], 7.86.

For “GUUCACCUAGGUGAUCGGGUG [Fam2.2 aminoacylation ribozyme variant]”, the self-aminoacylation in series [1] is 21; in series [2], 3.88; in series [3], 3.88; in series [4], 3.88; in series [5], 4.25; in series [6], 4.84.

For “CUACUUCAAACAAUCUUUCUG [Fam1A.1 aminoacylation ribozyme variant]”, the self-aminoacylation came out at 5.42 in series [1]; 0.747 in series [2]; 0.771 in series [3]; 0.898 in series [4]; 0.658 in series [5]; 2.33 in series [6].

For “CCACAUUGCAAGCAAUCGGUC [Fam1B.1 aminoacylation ribozyme variant]”, the self-aminoacylation in series [1] stood at 1.99; in series [2], 1.75; in series [3], 1.67; in series [4], 1.68; in series [5] it was 1.87; in series [6] it was 1.58.

Consider “UCACACUUCAAGCAAUCGUUC [Fam1B.1 aminoacylation ribozyme variant]”, for which the self-aminoacylation in series [1] came to 1.45; in series [2], 0.696; in series [3], 0.602; in series [4], 0.792; in series [5], 0.611; in series [6], 0.608.

Regarding “CCACACUUCACGCAACCGGUC [Fam1B.1 aminoacylation ribozyme variant]”, the self-aminoacylation in series [1] worked out at 0.978; in series [2] it was 1.24; in series [3], 1.21; in series [4] it was 1.55; in series [5], 1.55; in series [6], 0.831.

As for “CUACUUCAAACCAUCGCUCUG [Fam1A.1 aminoacylation ribozyme variant]”, the self-aminoacylation in series [1] was 0.394; in series [2] it was 0.878; in series [3], 0.762; in series [4] it was 0.982; in series [5] it was 0.915; in series [6], 0.532.

In the case of “CCACACGUCAAGCGAUCGGUC [Fam1B.1 aminoacylation ribozyme variant]”, the self-aminoacylation in series [1] was found to be 1.06; in series [2], 1.21; in series [3] it was 1.14; in series [4] it was 2.3; in series [5], 1.11; in series [6] it was 1.61.

As to “CUACUUCAAACUAUCGGUCUG [Fam1A.1 aminoacylation ribozyme variant]”, the self-aminoacylation is 1.15 in series [1]; 0.906 in series [2]; 0.818 in series [3]; 0.905 in series [4]; 0.779 in series [5]; 0.905 in series [6].

For the sequence “AUUCAACUAGGUCAUCGGUUG [Fam2.2 aminoacylation ribozyme variant]”, the self-aminoacylation in series [1] was found to be 0.677; in series [2], 0.952; in series [3], 0.933; in series [4], 0.963; in series [5], 0.889; in series [6] it was 0.843.

On to “CUACUUCAGACAAUCGGACUG [Fam1A.1 aminoacylation ribozyme variant]”, for which the self-aminoacylation in series [1] came out at 0.835; in series [2], 0.864; in series [3], 0.586; in series [4], 0.829; in series [5], 0.662; in series [6], 0.652.

“GUUCACCUAUGUCAUCGGGUG [Fam2.2 aminoacylation ribozyme variant]”: the self-aminoacylation in series [1] came to 21.4; in series [2] it was 3.1; in series [3], 4.03; in series [4] it was 3.31; in series [5], 5.63; in series [6] it was 4.3.
